In publication PMC9210341:

Legend:
Assay in all cases: SPR
[1] = target: SARS-CoV-2 Beta variant receptor binding domain (residues 319-541) (SARS-CoV-2 (Beta variant)) (UniProt P0DTC2)
[2] = target: SARS-CoV-2 Delta variant receptor binding domain (residues 319-541) (SARS-CoV-2 (Delta variant)) (UniProt P0DTC2)
[3] = target: equine angiotensin converting enzyme 2 (residues 19-615) (horse (equine))

equine angiotensin converting enzyme 2 (residues 19-615) (from UniProt A0A9L0TPT7 19-615) (receptor)
fold decrease in affinity against the SARS-CoV-2 PT-RBD [1]: 4.1 fold | fold decrease in affinity against the SARS-CoV-2 PT-RBD [2]: 2 fold

SARS-CoV-2 prototype receptor binding domain (residues 319-541) (from UniProt P0DTC2 319-541) (domain or fragment)
fold lower affinity than hACE2 with the SARS-COV-2 PT-RBD [3]: 32.2 fold
